Results on one molecule are retold here after patent US20260226142A1.

The assay concerns the target Cys-HLA (Staphylococcus aureus).

B1: Bm28H12 (VHH)
VHH: QVQLVESGGSVVQAGGSLRLSCTASGRNFNSYAMGWFRRPPGEQRDFIAAIIRSTGKTTYADSDSVKGRFTISKDSSGNTVYLQMNNLKPEDTAIYYCAGGDAGPYAFGYDYWGQGTQVTVSS
For B1, the Kd (usually the constant that tells how readily two partners part at equilibrium) is 0.1 nM.
